Assay results as given in patent US9605064B2, “Methods and compositions for treatment of skin disorders” (AbbVie Biotechnology Ltd, priority 2006, dated 2017).
Marks after values point to notes of the source that are not given here.

Columns and labels:
[1] = system: patients with moderate to severe psoriasis; assay: Adverse events, open-label extension of REVEAL
[2] = system: patients with moderate to severe plaque psoriasis; assay: Adverse events and laboratory abnormalities, 12-week open-label weekly therapy then randomized eow or withdrawal
[3] = system: patients with moderate to severe plaque psoriasis; assay: EuroQOL 5D (EQ-5D), Phase II trial; format: in vivo, human; conditions: Week 12
Procedure: This study provided the opportunity to evaluate the validity and responsiveness to change in clinical status of PROs instruments. Patients completed the DLQI, SF-36, and EQ-5D questionnaires at baseline and at 12 weeks. Blinded investigators assessed the Psoriasis Area and Severity Index (PASI) scores and the Physician's Global Assessment (PGA) scores of enrolled patients. The responsiveness of the measures to changes in the clinical endpoints from baseline to Week 12 was assessed. Estimates of minimum important differences (MID) were derived. All analyses were performed with blinded data; findings and conclusions were not biased based on treatment condition.
Three PROs measures were used in the study and are the subject of the analyses reported here. All PROs measures were assessed at baseline and at Week 12 (or early termination, if applicable).
The EQ-5D [17,18] is a six-item, preference-based instrument designed to measure general health status. The EQ-5D has two sections: The first consists of five items to assess degree of physical functioning (mobility, self-care, usual activities, pain/discomfort, and anxiety/depression). […]
The relationship between mean change in EQ-5D and clinical responses was evaluated from baseline to Week 12. […]

[4] = system: patients with chronic plaque psoriasis; assay: Safety, 16-week open-label Phase IIIb trial after suboptimal response to ETN, MTX or NB-UVB
Excerpt: (§1) This 16-week, multicenter, open-label, Phase IIIb trial enrolled patients with chronic plaque psoriasis who were having a suboptimal response to ETN (Physician's Global Assessment [PGA]≧mild with months of therapy, or ≧3 months of therapy and deterioration of efficacy), MTX (PGA≧mild with ≧4 months of therapy), or narrow-band ultraviolet B (NB-UVB) phototherapy (PGA moderate with months of therapy). […] The primary endpoint was the proportion of patients who achieved PGA of clear or minimal at week 16. A secondary endpoint was the proportion achieving ≧1 grade of PGA improvement. Safety was assessed throughout the study. Efficacy analyses were intention to treat, with nonresponder imputation used for missing data. Efficacy and safety results were analyzed overall and for each prior-treatment group.

[5] = system: patients with moderate to severe chronic plaque psoriasis; assay: PGA, CHAMPION 16-week Phase III trial; format: in vivo, human; conditions: ITT, missing PGA = not achieving
Procedure: Analytical methods included the following: • Intention-to-treat analyses were performed for all randomized patients • Missing data were analyzed using non-responder imputation (NRI) • PASI 75 at Week 16 (primary endpoint) was analyzed using adjusted Cochran-Mantel-Haenszel test.

[6] = system: patients with chronic plaque psoriasis; assay: PGA, 16-week open-label Phase IIIb trial after suboptimal response to ETN, MTX or NB-UVB; format: in vivo, human; conditions: week 16
Excerpt: as §1

[7] = system: patients with moderate to severe psoriasis; assay: PGA, open-label extension of REVEAL; format: in vivo, human; conditions: for PGA “Clear” or “Minimal”: n = 233, ITT, LOCF
Procedure: Laboratory parameters and adverse events were also recorded.

[8] = system: patients with severe psoriasis who were non-responders to high-dosage etanercept; assay: Adverse events, open-label adalimumab in non-responders to high-dosage etanercept; format: in vivo, human; conditions: 12 weeks
Procedure: Details on clinical course and adverse events were recorded, along with measurements of PASI and Dermatology Life Quality Index (DLQI) at baseline and Weeks 2, 4, 8, and 12.

[9] = system: patients with moderate to severe chronic plaque psoriasis; assay: PASI response, open-label extension of CHAMPION (methotrexate to adalimumab transition); format: in vivo, human
[10] = system: patients with moderate to severe chronic plaque psoriasis; assay: Adverse events, open-label extension of CHAMPION
[11] = system: patients with moderate to severe plaque psoriasis; assay: PGA, 12-week open-label weekly therapy then randomized eow or withdrawal; format: in vivo, human
[12] = system: patients with moderate to severe chronic plaque psoriasis; conditions: in vivo
Excerpt: The study was a multi-center, 16-week, randomized controlled Phase III trial. The main inclusion criteria included: • Clinical diagnosis of psoriasis for ≧1 year • Affected body surface area (BSA)≧10% • Psoriasis Area and Severity Index (PASI)≧10 The main exclusion criteria was previous use of MTX or systemic anti-TNF therapy.

[13] = Double-blind period Weeks 12-24, 40 mg eow (N = 68)
[14] = Open-label period Weeks 0-11, 40 mg weekly (N = 148)
[15] = methotrexate-treated patients after 12 weeks of adalimumab therapy
[16] = methotrexate-treated patients after 24 weeks of adalimumab therapy
[17] = through Week 24 of the OLE (N = 95), AEs occurring ≧5% of patients
[18] = through Week 24 of the OLE (N = 95), MTX patients transitioned to adalimumab 40 mg eow

Adalimumab: a human anti-TNF mAb, described in U.S. Pat. No. 6,090,382 as D2E7 (HUMIRA, Abbott Laboratories)
AEs leading to withdrawal, Patients (%) ([1]; First 24 weeks of OLE): 1% | Any AE, Patients (%) ([1]; First 24 weeks of OLE): 47% | Lymphoma, Patients (%) ([1]; First 24 weeks of OLE): 0% | Malignancy, Patients (%) ([1]; First 24 weeks of OLE): 1% | Non-melanoma skin cancer, Patients (%) ([1]; First 24 weeks of OLE): 0% | Serious AE, Patients (%) ([1]; First 24 weeks of OLE): 3% | Nasopharyngitis, Patients (%) ([1]; First 24 weeks of OLE, AEs occurring ≧5% of patients): 5% | patients with serious adverse events ([1]; between Months 12-18): 2.6% | patients with serious adverse events ([2]; 24-week trial): Four patients | tuberculosis or other opportunistic infections, lymphoma, melanoma, other malignancies, demyelinating disorders, lupus-like syndromes, congestive heart failure ([2]; 24-week trial): No patients developed | Any AE [2, 13]: 46 (67.6) n (%) | Any AEs leading to discontinuation [2, 13]: 2 (2.9) n (%) | Any SAE [2, 13]: 2 (2.9) n (%) | Arthralgia [2, 13]: 5 (7.4) n (%) | Headache [2, 13]: 1 (1.5) n (%) | Injection site reaction [2, 13]: 4 (5.9) n (%) | Nasopharyngitis [2, 13]: 3 (4.4) n (%) | Any AE [2, 14]: 105 (70.9) n (%) | Any AEs leading to discontinuation [2, 14]: 1 (0.7) n (%) | Any SAE [2, 14]: 2 (1.4) n (%) | Arthralgia [2, 14]: 4 (2.7) n (%) | Headache [2, 14]: 11 (7.4) n (%) | Injection site reaction [2, 14]: 17 (11.5) n (%) | Nasopharyngitis [2, 14]: 11 (7.4) n (%) | ALT elevation greater than 2.5 times the upper limit of normal ([2]; Week 12): No patients | ALT elevation greater than 2.5 times the upper limit of normal ([2]; adalimumab eow group, Week 24): One patient | arthralgias ([2]; adalimumab eow group, Weeks 12-24): 7.4% | patients who withdrew because of an adverse event ([2]; of the 148 patients who received at least one dose): three | rebound (pre-specified definition) ([2]; three patients classified by investigators as rebounders): None of the three patients met the study's pre-specified definition of rebound | Mean Change in EQ-5D VAS, Change from Baseline ([3]; 40 mg eow): 18 | Mean Change in EQ-5D VAS, Change from Baseline ([3]; 40 mg weekly): 10.9 | malignancies ([4]; 16-week trial): no malignancies were reported | patients with >25% worsening in PASI scores ([4]; all patients (2 MTX, 2 ETN)): 2.6% | PGA “Clear” or “Minimal” Responses, % Patients ([5]; Week 4): 7*† % | PGA “Clear” or “Minimal” Responses, % Patients ([5]; Week 8): 27‡§ % | PGA “Clear” or “Minimal” Responses, % Patients ([5]; Week 12): 48‡§ % | PGA “Clear” or “Minimal” Responses, % Patients ([5]; Week 16): 52‡§ % | ≧1 grade improvement in PGA ([6]; all patients): 75.0% | PGA of clear or minimal ([6]; prior ETN group): 48.8% | ≧1 grade improvement in PGA ([6]; prior ETN group): 72.0% | PGA of clear or minimal ([6]; prior MTX group): 61.0% | ≧1 grade improvement in PGA ([6]; prior MTX group): 78.0% | PGA of clear or minimal ([6]; prior NB-UVB group): 48.3% | ≧1 grade improvement in PGA ([6]; prior NB-UVB group): 79.3% | PGA scores of “clear” or “minimal ([7]; OLE of REVEAL): 74% | PGA “Clear” or “Minimal” ([7]; Week 0 of OLE): 70% | PGA “Clear” or “Minimal” ([7]; Week 12 of OLE): 71% | PGA “Clear” or “Minimal” ([7]; Week 24 of OLE): 74% | Serious Adverse Events [8]: No serious adverse events were reported | PASI 75 response rate [9, 15]: 75% | PASI 90 response rate [9, 15]: 47% | PASI 100 response rate [9, 15]: 18% | PASI 75 response rate [9, 16]: 73% | PASI 90 response rate [9, 16]: 53% | PASI 100 response rate [9, 16]: 32% | rebound ([10]; first 24 weeks of the OLE): No cases of rebound were observed | Injection-site reaction, Percentage of Patients [10, 17]: 5% | Nasopharyngitis, Percentage of Patients [10, 17]: 6% | AEs leading to withdrawal, Percentage of Patients [10, 18]: 1% | Any AE, Percentage of Patients [10, 18]: 47% | Any malignancy, Percentage of Patients [10, 18]: 0% | Rebound psoriasis, Percentage of Patients [10, 18]: 0% | Serious AE, Percentage of Patients [10, 18]: 5% | PGA “Clear” or “Minimal” ([11]; open-label 40 mg weekly, Week 12): 66% | PGA “Clear” or “Minimal” ([11]; randomized to 40 mg eow at Week 12, Week 24): 54.4% | Any infectious AE [12]: 51 (48) n (%) | Any infectious SAE [12]: 0 (0) n (%)
